Measurements: patent US20230095569A1 (ANTENGENE BIOLOGICS, published 2023)

How the values were obtained:
[1] = molecular target: T1, human Claudin18.2 (CLDN18.2) (human, UniProt P56856 1-261); experiment: FACS on CHOK1-18.2 cells
T1 construct: the cell line is named under assay; also called human Claudine18.2; hClaudin18.2

[2] = molecular target: T1, human Claudin18.2 (CLDN18.2); experiment: FACS on GAXC031 cells, antibody at 50 µg/ml
[3] = molecular target: T1, human Claudin18.2 (CLDN18.2); experiment: FACS on CHOK1-18.2 cells, antibody at 50 µg/ml
[4] = molecular target: T1, human Claudin18.2 (CLDN18.2); experiment: cell-based or functional assay
[5] = molecular target: T1, human Claudin18.2 (CLDN18.2); experiment: cell-based or functional assay; remark: listed apart in the source
[6] = molecular target: T1, human Claudin18.2 (CLDN18.2); experiment: cell-based or functional assay; remark: listed apart in the source
[7] = molecular target: T1, human Claudin18.2 (CLDN18.2); experiment: FACS on GAXC031 cells

Row | Binder | EC50 [1] | MAX MFI [2] | MAX MFI [3] | ADCC EC50 [4] | Max tumor cell killing (% of control), ADCC [4] | CDC EC50 [5] | Max CDC induced tumor cell killing (% of control) [5] | IC50 of indirect ADC cytotoxicity [6] | Max inhibition % [6] | EC50 [7]
1 | chAb04 (antibody, V domains shown) VH: EVQLQQSGPELVKPGASVKMSCMASGYTFTDYNIHWVKRSHGSRLEWIGYISPISGGAGYNQKFMDKATLTVDKSSNTAYMELRSLTSEDSAVYYCTRGDYWGQGTTLTVSS VL: DIVMTQSPSSLAVTVGEKVTMSCKSSQSLLNSGNQKNYLTWYQQKPGQPPKLLIYWASTRKSGVPDRFTGSGSGTDFTLTISSVQAEDLGIYYCLNDYGFPLTFGAGSKLELK | 2.14 nM | 3860 | 75300 | – | – | – | – | – | – | –
2 | chAb25 (antibody, V domains shown) VH: EAQLQQSGPELVKPGASVKIFCKASGYTFTDYYINWVKQSHGKSLEWIGDINPNNGGTTYNQKFKGKATLTVDKSSSTASMELRRLTSEDSSVYYCARRDAMDYWGQGTSVTVSS VL: DIVMTQSQKFMSTTVGDRVSITCTASQNVGPAVAWYQQKPGQSPKLLIYSASRRFTGVPDRFTGSGSGTVFTLTINNVQSEDLADYFCQQYISYPLTFGAGTKLELK | 8.27 nM | 3020 | 56100 | 8.38 nM | 76.8 % of control | 25.4 nM | 72.9 % of control | 0.86 nM | 92.9% | –
3 | chAb31 (antibody, V domains shown) VH: QIQLAQSGPELKKPGETVKISCKASGYSFTNYGMNWVKQAPGKGLKWMGWINTYSGETKYADDFKGRFDFSLETSARTAYLQIKNLKIEDTATYFCARRDAMDYWGQGTSVTVSS VL: DIVMTQAAPSVPVTPGESVSISCRSSKSLLNSNGNTYLYWFLQRPGQSPQLLIYRMSNLASGVPDRFSGSGSGTAFTLRISRVEAEDVGVYYCMQHLEFPFTFGSGTKLEIK | 5.17 nM | 3770 | 59900 | 8.16 nM | 78.8 % of control | 37.9 nM | 60.7 % of control | 2.35 nM | 91.7% | –
4 | chAb29 (antibody, V domains shown) VH: EVLLQQSGPELVKPGASVKIPCKASGYTLTDHSMDWVKQSHGKSLEWIGNILPNNGGNIYNQKFRGKATLTVDKSSSTAYMELRSLTSEDTAVYNCARGHYGNSFAYWGQGTLVIVS VL: DIVMTQSPSSLTVRAGEKVTIYCKSSQSLFNSGNQKNYLTWYQQKPGQPPKLLIYWASTRESGVPHRFTGSGSGTDFTLTISSMQADDLATYYCQNGYFFPYTFGGGTKLEIK | 6.63 nM | 5640 | 63400 | 5.27 nM | 60.9 % of control | 12.7 nM | 67.8 % of control | 0.91 nM | 93.5% | –
5 | IMAB362 (Zolbetuximab) (antibody, V domains shown) VH: QVQLQQPGAELVRPGASVKLSCKASGYTFTSYWINWVKQRPGQGLEWIGNIYPSDSYTNYNQKFKDKATLTVDKSSSTAYMQLSSPTSEDSAVYYCTRSWRGNSFDYWGQGTTLTVSS VL: DIVMTQSPSSLTVTAGEKVTMSCKSSQSLLNSGNQKNYLTWYQQKPGQPPKLLIYWASTRESGVPDRFTGSGSGTDFTLTISSVQAEDLAVYYCQNDYSYPFTFGSGTKLEIKR | 5.69 nM | 742 | 49600 | 36.1 nM | 30.7 % of control | 809 nM | 52.5 % of control | 4.75 nM | 81.8% | 36.1 nM
6 | chAb24 (antibody, V domains shown) VH: EVKLVESGGGLVKPGGSLKLSCAGSGFTFSSYTMSWVRQTPEKRLEWVATITIGVNIYYLDSVKGRFTISRDNAKNTLYLQMNSLRSEDTALYYCTRLGQTQRNAMDYWGQGTSVTVSS VL: DIVMTQSPTSLSVSAGEKVTMTCKSSQSLFNSGNQKNYLAWYQEKPGQPPKLLIYGASTRESGVPDRFTGSGSGTDFTLTISSVQAEDLAVYYCQNVHFYPFTFGAGTKLEL | 4.99 nM | 5860 | 64500 | 4.46 nM | 66.6 % of control | 12.8 nM | 70.7 % of control | 0.85 nM | 92.7% | –
7 | chAb11 (antibody, V domains shown) VH: EVMLVESGGDLVKPGGSLKLSCAASGFTFSRYTMSWVRQTPEKRLEWVATVSVGSGNTYYLDSVKGRFTISRDNAKNTLFLQMNSLRSEDTALYYCTRLGQTQRNAVDYWGQGTSVTVSS VL: DIVMTQSPSFLSVSAGEKVTMSCKSSQSLFNGGNQKNYLAWYQQKPGQPPKLLIYGASTRDSGVPDRFTGSGSGTDFTLTISNVQAEDLAIYFCQNDHSFPLTFGAGTKLELK | 3.63 nM | 6420 | 85600 | 3.7 nM | 54.7 % of control | 19.4 nM | 71.2 % of control | 0.87 nM | 93.5% | –
8 | chAb18 (antibody, V domains shown) VH: QVQLKESGPGLVAPSQSLSITCTVSGFSLTTYGINWVRQPPGKGLEWLGVIWGDGSTNYHSALISRLSISKDNSKSQVFLKLNSLQTDDTATYYCVKSSYYGNAMDYWGQGTSVTVSS VL: DIVMTQSPSSLTVTAGETVTMSCKSSQSLLNSGNQKNYLTWYQQKPGQPPKLLIYWASTRESGVPDRFTGSGSGTDFTLTISSVQAEDLAVYYCQNVYSYPFTFGSGTKLEI | 7.71 nM | 3690 | 60200 | 5.07 nM | 61.5 % of control | 35 nM | 75.3 % of control | 1.58 nM | 90.7% | –
9 | chAb30 (antibody, V domains shown) VH: QVQLKESGPGLVAPSQSLSITCTVSGFSLTKFGVNWVRQPPGKGLEWLGAIWGDGSTNYHSALISRLSINKDNSKSQVFLKLSSLQNVDTATYYCAKSGYGNAMDYWGHGTSVTVSS VL: DIVMTQSPSSLTVTTGEKVTLNCKSSQSLLNSGNLKNYLTWYQQRPGQPPKLLIYWASTRESGVPYRFTGSGSGTDFTLTISNVQAEDLAIYYCQNDYFFPFTFGSGTKLEIK | 9.76 nM | 4460 | 65000 | 7.44 nM | 80.2 % of control | 23.2 nM | 76.1 % of control | 1.58 nM | 92.4% | –
10 | chAb08 (antibody, V domains shown) VH: QVQLQQPGAELVKPGASVKLSCKASGYTFTSYLLHWVKQRPGQGLEWIGMIHPNGGSTNYNEKFKTKATLTVDKSSSTAYMQLSSLTSEDSAVYYCAPVYFGNSFAYWGQGTLVTVSA VL: DIVMTQSPSSLTVTAGEKVTMSCKSSQSLLNSGNQKNYLTWYQQKPGQPPKLLIYWASTRESGVPDRFTGSGSGTDFTLTISSVQAEDLAVYYCQNDYYYPFTFGSGTKLEKK | 3.6 nM | 5830 | 71900 | 2.22 nM | 69.3 % of control | 13.6 nM | 68.4 % of control | 0.45 nM | 92.5% | –
11 | chAb06 (antibody, V domains shown) VH: EVQLVASGGGLVKPGGSLKLSCAASGITFRSYAMSWVRQTPEKRLEWVATITDGGSYIFYPDNVKGRFTISGDHAKNNLYLQMSHLKSEDTALYFCVRLYYGNSFAYWGQGTLVTVSA VL: DIVMTQSPSSLTVTAGEKVTLNCKSSQSLFNSGNQKNYLTWYQQKPGQPPKLLIYWASTRESGVPDRFTGSGSGTDFTLTFSSVQAEDLAVYYCQNAYIYPFTFGSGTKLEIK | 5.42 nM | 5460 | 92800 | 3.01 nM | 40.6 % of control | 9.72 nM | 75.4 % of control | 0.61 nM | 91.8% | –
